Patent US20050171014A1 (GOVERNMENT OF THE UNITED STATES OF AMERICA REPRESENTED BY …, published 2005)
Non-standard residues stand in square brackets, D forms with d. HTI‑286 = hemiasterlin derivative, cytotoxic agent; Cha = N[C@@H](CC1CCCCC1)C(=O)O; Nle = CCCC[C@H](N)C(=O)O

Columns and labels:
[1] = target: low-affinity gastrin receptor of nontransfected cells; test: cell-based or functional assay
gastrin receptor = target: T1, gastrin receptor; test: cell-based or functional assay
T1 sequence (P32239 whole entry, species assumed, looked up): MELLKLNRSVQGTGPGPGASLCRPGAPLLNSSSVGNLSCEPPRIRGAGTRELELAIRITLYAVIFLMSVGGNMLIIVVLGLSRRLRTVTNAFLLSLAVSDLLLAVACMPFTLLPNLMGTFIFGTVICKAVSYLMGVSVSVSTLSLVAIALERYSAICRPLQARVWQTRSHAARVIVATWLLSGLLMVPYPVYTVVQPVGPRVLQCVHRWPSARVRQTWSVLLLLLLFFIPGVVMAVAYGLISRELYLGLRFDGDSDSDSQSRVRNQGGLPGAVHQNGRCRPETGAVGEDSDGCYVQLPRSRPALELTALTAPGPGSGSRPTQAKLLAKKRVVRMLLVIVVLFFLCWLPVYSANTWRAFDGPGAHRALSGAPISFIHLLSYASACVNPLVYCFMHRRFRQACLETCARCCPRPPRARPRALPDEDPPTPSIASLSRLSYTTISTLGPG

B1: HTI-286-Cha-Leu-Ala-Leu-Ala-EEEAYGW-Nle-DF-NH2 (peptide)
peptide: {HTI‑286}-[Cha]LALAEEEAYGW[Nle]DF-NH2
With B1 as the binder, how does the “IC50, growth inhibition of nontransfected cells (MTT or sulforhodamine assay)” value [1] read?
The value was 300 nM.

What about the “IC50, growth inhibition of gastrin receptor-expressing 3T3 cells (MTT or sulforhodamine assay)” value (gastrin receptor) of the same binder?
Its value is 10 nM.
